From patent US20200148779A1 (Bristol-Myers Squibb, published 2020)
Where a chain is given by its changes, count along the chain named. Each block holds one binder with its values, some of them ahead of it.

Molecular target: T1, human-CD40-Fc (human, UniProt P25942 21-193)
T1 construct: generated in house; also called hCD40-Fc; not shown: Fc part of the in-house hCD40-Fc is not described
Test: SPR, dAb-Fc on immobilized hCD40-Fc, apparent KD (avidity)

T1 sequence (P25942 21-193): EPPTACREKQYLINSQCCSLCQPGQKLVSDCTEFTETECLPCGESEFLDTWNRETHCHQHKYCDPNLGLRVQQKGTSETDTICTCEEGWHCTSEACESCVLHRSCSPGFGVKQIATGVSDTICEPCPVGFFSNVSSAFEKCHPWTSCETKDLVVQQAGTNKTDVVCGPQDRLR

Kd: < 1 nM
B1: 3h56-269-IgG1.1f (Fc fusion)
chain: EVQLLESGGGLVQPGGSLRLSCAASGFTFRDYEMWWVRQAPGKGLERVSAINPQGTRTYYADSVKGRFTISRDNSKNTLYLQMNSLRAEDTAVYYCAKLPFRFSDRGQGTLVTVSSASTEPKSCDKTHTCPPCPAPEAEGAPSVFLFPPKPKDTLMISRTPEVTCVVVDVSHEDPEVKFNWYVDGVEVHNAKTKPREEQYNSTYRVVSVLTVLHQDWLNGKEYKCKVSNKALPSSIEKTISKAKGQPREPQVYTLPPSREEMTKNQVSLTCLVKGFYPSDIAVEWESNGQPENNYKTTPPVLDSDGSFFLYSKLTVDKSRWQQGNVFSCSVMHEALHNHYTQKSLSLSPGK

Kd: < 1 nM
B2: 3h56-269-IgG1.3f (Fc fusion)
chain: B1 chain with S234A, S235P
